Measured values taken from US20260258115A1.

Key:
[1] = target: RSV postfusion F (postF, F deltaFP) (Respiratory syncytial virus); assay: BLI, IgG on sensor, 100 nM antigen
[2] = target: RSV prefusion F (preF, DS-Cav1) (Respiratory syncytial virus); assay: BLI, IgG on sensor, 100 nM antigen
[3] = target: Respiratory Syncytial Virus fusion glycoprotein (RSV F) on RSV-A2 virus (Respiratory Syncytial Virus subtype A (RSV-A2)); assay: cell-based or functional assay
[4] = target: RSV postfusion F (postF), F deltaFP (Respiratory Syncytial Virus); assay: BLI, IgG on anti-human IgG sensor, 100 nM antigen

Binder | Kd [1] [nM] | Kd [2] [nM] | Neutralization IC50 (RSV subtype A) [3] [µg/mL] | Kd [4] [nM]
ADI-41324 (antibody, V domains shown) VH: EVQLVESGGGLVQPGGSLRLSCAASGFTVSNNYMRWVRQAPGKGLEWVSVIYSSGSTDYADSVKGRFTISRDNSKNTLYLQMNSLRAEDTAVYYCARERTLFYYDSSGFFDYWGQGTLVTVSS VL: ETTLTQSPGTLSLSPGERATLSCRASQSVDSSYLAWYQQKPGQAPRLLIYGASNRATGIPDRFSGSGSGTDFTLTISRLEPEDFAVYYCQQYGRSLTFGGGTKLEIK | 0.426 | 2.47 | – | –
ADI-41176 (antibody, V domains shown) VH: EVQLVESGPGLVKPSETLSLTCTVSGGSIGNDYYYWGWIRQPPGKGLEWIGNISYSGSTYYNPSLKSRVTISVGTSKNQFSLKLTSVSAADTAVYHCVGRTFWRDCSSTSCYEYYFDYWGQGTLVTVSS VL: ETTLTQSPTSLSASVGDRVTITCRASQGISNYLAWYQQKPGKVPKVLIYAASTLQSGVSSRFSGSGSGTGFTLTISNLQPEDVATYYCQNYNSAPWTFGQGTKVEIK | – | – | > 25 | 4.07
ADI-41309 (antibody, V domains shown) VH: EVQLLESGPGLVKPSQTLSLTCTVSGGSISSGDYYWSWVRQPPGKGLEWIGNIYHSGSTYYKPSLKSRVSISLDTSKNQFSLKLSSVTAADTAIYYCARDGGENYVWGTFRFLDVWGQGTTVTVSS VL: DIRLTQSPGTLSLSPGERATLSCRASQSVSSSYLAWYQQKPGQAPRLLIYGVSSRATGIPDRFSGSGSGTDFTLTINRLEPEDFALYHCQQYGSSPHTFGQGTKVEIK | 1.36 | 4.34 | – | –
ADI-41315 (antibody, V domains shown) VH: EVQLLESGPGLVKPSETLSLTCAVSGGSISNYYWSWIRQPPGKGLEWIAYISYSGTTNYNPSLESRVTISVDTSKNQFSLKLNSVTAADTAVYYCARHEFLVLPDVWGQGTLVTVSS VL: ETTLTQSPGTLSLSPGERATLSCRASQSVSSTFLAWYQQKPGQAPRLLIYAASSRATGIPDRFSGSGSGTDFTLIISRLEPEDFAVYYCQQYRSSPFSFGPGTKVEIK | 1.03 | 2.93 | – | –
ADI-41159 (antibody, V domains shown) VH: EVQLVESGAEVKKPGESLKISCKGSGYSFTTYWIGWVRQMPGKGLEWMGIMYPGDSQTRYSPSFQGQVTISADKSISTAYLQWSSLKASDTAMYYCARGGYCSGGSCYRGLDYWGQGTLVTVSS VL: EIVMTQSPSSLSASVGDRVTITCRASQSISSFLNWYQQKPGKAPNLLIYAASSLLSGVPSRFSGSGSGTDFTLTISSLQPEDFATYYCQQSHSTPQTFGQGTKLEIK | – | – | > 25 | 9.87
ADI-41318 (antibody, V domains shown) VH: EVQLLESGAEVKKPGSSVRVSCKAFGGTFSSYAFSWVRQAPGQGLEWMGGITPMFGTENYAPNFQGRVTITADKLTTTVYMELSRLRSEDSAVYYCAREGGRLGTTMGAFDMWGQGTMVTVSS VL: DIRLTQSPSSLSASVGDRVTITCRASHGISSALAWYQQRPGRVPQVLIFHASTLESGVPSRFSGSGSGTDFTLTISSLQPEDFATYYCQQFNSYPYTFGQGTKVEIK | 35.4 | 426 | – | –
ADI-41323 (antibody, V domains shown) VH: EVQLLESGGGVVRPGGSLRLSCAASGFTFDDYAMGWVRQAPGKGLEWVSGITWNAGSTAYAGSVKGRFTISRDNAKNSLFLQMNSLRAEDTAFYLCARHVDSSGPVARHFDYWGQGTLVTVSS VL: NFMLTQPHSVSESPGKTVTISCTRSSGSIARNYVQWYQQRPGSAPTIVIYEDNQRPSGVPDRFSGSIDSSSNSASLTISGLKTEDEADYYCQSYDPSNVVFGGGTKLTVL | 0.331 | 1.95 | – | –
ADI-41346 (antibody, V domains shown) VH: QVQLVQSGPEVKKPGESLKISCTLSASGLTTYWIGWVRQMPAKGLEWMGIIFPGDSDTRYSPSFQGQVTISADKSTNTAYLQWSGLKASDTAIYYCATLQTPVTGLDQWGQGTLVTVSS VL: NFMLTQPHSVSESPGKTVTISCTRSSGNIARSYVQWYQQRPGSAPTTVIHEDDQRPSGVPDRFSGSIDTSSNSASLTISGLKTEDEADYYCQSYDPSNYVFGTGTKVTVL | 0.267 | 1.88 | – | –
ADI-41345 (antibody, V domains shown) VH: EVQLVQSGAEVRKPGESLKISCKGSGYNFASYWIAWVRQMPGKGLEWMGIIFPGDSDTRYSPSFQGQVTISVDKSISTAYLQWSSLKASDTAIYYCATSKYTFGYLDWGQGTLVTVSS VL: NFMLTQPHSVSESPGKTVTISCTRSSGSIASNYVQWYQQRPGSAPTTVIYEDNQRPSGVPDRFSGSIDSSSNSASLTISGLKTEDEADYYCQSYDTSNQVFGTGTKVTVL | 0.349 | 2.29 | – | –
ADI-41156 (antibody, V domains shown) VH: QVQLVQSGGGLVQPGGSLRLSCVASGFIFSSYEMNWVRQAPGKGLEWVSYISSSGSTIYYADSVKGRFTISRDNAKNSLYLQMNSLGAEDTAVYYCARAILYFDYWGQGTLVTVSS VL: GIRLTQSPSSLSASVGDRVTITCRASQSITNYINWYQQKPGKAPKLLIYAISRLQSGVPSRFSGSGSGTDFTLTISSLQPEDFATYYCQQSYSTMYTFGQGTKVEIK | – | – | > 25 | 1.7
ADI-41342 (antibody, V domains shown) VH: QVQLVQSGAEVKKPGSSVKVSCKASGGTLTSYGVSWVRQAPGQGLEWMGGIIPIFGTVDYAQKFQGRVTITADEPTSTAYMELSSLTSDDTAVYYCARDPWVSGPVEFYYYFDVWGRGTLVTVSS VL: DIVLTESPATLSLSPGERATLSCRASQSINNRYLAWYQQKPGQAPRLLIFGASSRATGIPDRFSGSGSGTDFTLTISRLEPEDFAVYYCQQYGSTPPTFGQGTKVEIK | 0.591 | 3.99 | – | –
ADI-41311 (antibody, V domains shown) VH: QVTLKQSGPALVKPTQTLTLTCTFSGFSLSTKRMGVSWIRQPPGKALEWLARIDWDDDKYYSTSLRTRLTISKDTSKNQVVLTMTDMDPVDTATYYCARIQPYTSGGYYSYYFDYWGQGTLVTVSS VL: DIQVTQSPSSLSASIGDRVTITCRASQTIASYLNWYQQKPGKAPKLLIYIASSLQSGVPSRFSGSGSGTDFTLTISTLQPEDFATYYCQQSYGTPWTFGQGTKVEIK | 0.524 | 0.754 | – | –
ADI-41341 (antibody, V domains shown) VH: QVQLVQSGAEVKKPGSSVKVSCKASGGTFSSYATHWVRQAPGQGLEWMGGIIPIFGRATYAQKFQGRVTISADESTSTAYMELSSLRSEDTAVYYCARGRDDRSGDHIAFLYHYGMDVWGQGSTVTVSS VL: QSVLTQPPSVSAAPGQKVSISCSGSSSNIGINHASWYQHLPGTAPKLLIYDNNKRPSGIPDRFSGSKSGTSATLGISGLQTGDEAAYYCGTWDTGLSAVVFGGGTKLTVL | 1.97 | 2.83 | – | –
ADI-41347 (antibody, V domains shown) VH: EVQLVESGPGLVKPSGTLSLTCAVSGGSVSSDNWWSWVRQPPGKGIEWIGEIYPSGGTNYNPSLNSRVTISVDKSKNQFSLKLNSVTAADTAIYYCARAPFDSSGYHSNSVWGQGTLVTVSS VL: ETTLTQSPLSLPVTPGEPASISCRSSQSLLHSNGHNYLDWYVQKPGQSPQLLIYLSSNRASGVPDRFSGSGSGTDFTLRISRVEAEDVGVYYCMQPLQTPQTFGQGTKVEIK | 0.521 | 2.6 | – | –
ADI-41164 (antibody, V domains shown) VH: QVQLVQSGGDLVQPGGSLRLSCAASGFTFSDYEVNWVRQAPGKGLEWLSYISSSGRIIHYADSVRGRFTISRDNAKNSLYLQMNSLRAEDTAVYYCARAAGQWLVTYYYYGMDVWGQGTTVTVSS VL: QSVMTQSPSTLSASVGDTVTITCRASQSIINRLAWYQQKPGKPPKLLIYKSSSSESGVPSKFSGSGSGTEFTLTINSLQPDDFATYYCQHYNSYLYTFGQGTKVEIK | – | – | > 25 | 0.962
ADI-41316 (antibody, V domains shown) VH: QVQLVQSGGGVVQPGRSLRLSCAASGFTFNNYGMHWVRQAPGKGLEWVAVLSFDGINKYYADSARGRFTISRDNSKNTLYLQMNSLRAEDTALYYCAKDRQEYSSGWTHDACDIWGQGTMVTVSS VL: EIVMTQSPATLSVSPGERATLSCRASQNVNNNLAWYQQNPGQAPRLLIFGASTRATGIPARFSGSGSGTEFTLTISSLQSEDFAVYYCQQYNNWPRTFGQGTKLEIK | 1.05 | 3.74 | – | –
ADI-41313 (antibody, V domains shown) VH: EVQLVESGAEVKKPGASVKVSCKASGYTFNNYDISWVRQAPGQGLEWMGWISTYNGNTNYAQKFQGRATMTTDTSTTTAYMELRSLRSDDSAIYYCARVYCGGDCHNPFFLYFDLWGRGTLVTVSS VL: SYVLTQPLSVSVALGQTARITCGGNNIGSKSVHWYQQKPGQAPLLVIYRDNNRPSGIPERFSGSTSGNTATLTISRAQAGDEADYSCQVWDNSDWVFGGGTKLTVL | 0.342 | 0.455 | – | –
ADI-41308 (antibody, V domains shown) VH: EVQLVESGPGLVKPSQTLSLTCAISGDSVSSNSAAWNWIRQSPSRGLERMGRTYYRSKWYDDYAVSVKSRIIINPDTSKNQFSLQLNSVTPEDTAVYYCARGISTFGGVIYALEIWGQGTMVTVSS VL: SYVLTQPASVSGSPGQSITISCTGLTSDVGGYNFVSWYQQHPGKAPKLIIYDVSHRPSGVSNRFSGSESGNTASLTISGLQAEDEAHYYCSSYTRTSIVVFGGGTKLTVL | 0.519 | 4 | – | –
ADI-41174 (antibody, V domains shown) VH: EVQLVESGAEVEKPGASVKVSCKASGYTFINYDIIWVRQAPGQGLEWMGWISGYKGNTNYAQKLQGRITMSTDTSTRTAYMELRSLTSDDTAVYYCARVGGTARSTTPYYYGMDVWGQGTTVTVSS VL: SYVLTQPPSVSVSPGQTARITCSGDAVPKQFSYWYQQKPGQAPVLVIYKDIERPSGIPERFSGSSSGTTVTLTISGVQAEDEADYYCQSAHTSGTYHVFGTGTKLTVL | – | – | > 25 | 0.751
ADI-41314 (antibody, V domains shown) VH: QVQLVQSGAEVKKPGSSVKVSCKAFGGIFSSYAISWVRQAPGQGLEWMGGIIPIFGTTKYAQKFQGRVTITADKSTSTVYMEVSSLRFEESAVYFCARAYCSGGTWYGGADYWGQGTLVTVSS VL: QSVLTQPPSVSVSPGQTARITCSGDVLPKQYAYWYQQKPGQAPLLVMYKDTERPSGIPERFSGSSSVTAVTLTISGVQAEDEADYYCQSADSTQELFGGGTKLTVL | 0.414 | 2.41 | – | –
